Experimental data: IntAct's records for PubMed 9264463

B1: Catenin alpha-1 (Mus musculus), P26231 (parent)
chain: MTAVHAGNINFKWDPKSLEIRTLAVERLLEPLVTQVTTLVNTNSKGPSNKKRGRSKKAHVLAASVEQATENFLEKGDKIAKESQFLKEELVVAVEDVRKQGDLMKSAAGEFADDPCSSVKRGNMVRAARALLSAVTRLLILADMADVYKLLVQLKVVEDGILKLRNAGNEQDLGIQYKALKPEVDKLNIMAAKRQQELKDVGNRDQMAAARGILQKNVPILYTASQACLQHPDVAAYKANRDLIYKQLQQAVTGISNAAQATASDDAAQHQGGSGGELAYALNNFDKQIIVDPLSFSEERFRPSLEERLESIISGAALMADSSCTRDDRRERIVAECNAVRQALQDLLSEYMGNAGRKERSDALNSAIDKMTKKTRDLRRQLRKAVMDHVSDSFLETNVPLLVLIEAAKNGNEKEVKEYAQVFREHANKLIEVANLACSISNNEEGVKLVRMSASQLEALCPQVINAALALAAKPQSKLAQENMDLFKEQWEKQVRVLTDAVDDITSIDDFLAVSENHILEDVNKCVIALQEKDVDGLDRTAGAIRGRAARVIHVVTSEMDNYEPGVYTEKVLEATKLLSNTVMPRFTEQVEAAVEALSSDPAQPMDENEFIDASRLVYDGIRDIRKAVLMIRTPEELDDSDFETEDFDVRSRTSVQTEDDQLIAGQSARAIMAQLPQEQKAKIAEQVASFQEEKSKLDAEVSKWDDSGNDIIVLAKQMCMIMMEMTDFTRGKGPLKNTSDVISAAKKIAEAGSRMDKLGRTIADHCPDSACKQDLLAYLQRIALYCHQLNICSKVKAEVQNLGGELVVSGVDSAMSLIQAAKNLMNAVVQTVKASYVASTKYQKSQGMASLNLPAVSWKMKAPEKKPLVKREKQDETQTKIKRASQKKHVNPVQALSEFKAMDSI

Variants of: B1
Conditions: with ctnb1_human CTNNB1, P35222
Chain of ctnb1_human CTNNB1, P35222 (P35222 whole entry): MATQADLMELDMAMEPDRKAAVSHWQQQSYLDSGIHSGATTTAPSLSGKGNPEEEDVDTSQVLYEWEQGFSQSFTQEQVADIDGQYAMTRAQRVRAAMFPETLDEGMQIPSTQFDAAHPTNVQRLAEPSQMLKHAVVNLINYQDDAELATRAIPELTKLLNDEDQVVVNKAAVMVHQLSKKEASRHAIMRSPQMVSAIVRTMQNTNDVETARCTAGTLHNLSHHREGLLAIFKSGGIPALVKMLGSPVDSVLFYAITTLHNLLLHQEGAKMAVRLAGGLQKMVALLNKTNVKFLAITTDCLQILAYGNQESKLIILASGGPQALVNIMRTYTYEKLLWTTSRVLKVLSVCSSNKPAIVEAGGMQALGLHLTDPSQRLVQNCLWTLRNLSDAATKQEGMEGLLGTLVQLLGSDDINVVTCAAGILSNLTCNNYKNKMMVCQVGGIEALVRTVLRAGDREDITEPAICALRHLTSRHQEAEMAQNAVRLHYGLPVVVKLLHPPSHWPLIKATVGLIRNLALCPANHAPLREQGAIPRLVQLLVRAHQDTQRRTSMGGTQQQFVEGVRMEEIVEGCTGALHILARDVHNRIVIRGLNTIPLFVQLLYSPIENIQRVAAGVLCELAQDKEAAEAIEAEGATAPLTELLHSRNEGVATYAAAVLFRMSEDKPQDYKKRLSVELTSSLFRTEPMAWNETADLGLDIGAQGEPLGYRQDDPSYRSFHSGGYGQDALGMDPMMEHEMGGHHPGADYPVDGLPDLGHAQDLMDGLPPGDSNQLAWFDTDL

Row | Variant | effect of a mutation on the interaction
1 | V125A | decreasing interaction
2 | L131A | decreasing interaction
3 | L141A | decreasing interaction
4 | T136A | increasing interaction
5 | L132A | decreasing interaction
6 | S133A | increasing interaction
7 | A142S | decreasing interaction
8 | R129A | increasing interaction

Now from value to variant:

Row | effect of a mutation on the interaction | Variant
9 | decreasing interaction | R137A
10 | increasing interaction | R126A
11 | decreasing interaction | V135A
12 | decreasing interaction | L139A
13 | decreasing interaction | L138A
